Ends that are not written are not given here. * marks the point of attachment. Biotin = O=C1N[C@H]2[C@H](CS[C@H]2CCCCC(=O)*)N1
Tests used:
[1] = target: T1, full-length human Nur77 (NR4A1) (human, UniProt P22736 1-598); assay: plate binding assay, SA488-labelled peptide on adsorbed Nur77, fluorescence
T1 construct: mature
Method: Experiment 4C. Binding of immodulin peptides to full-length human Nur77 (NR4A1). 400 ng/well recombinant human Nur77 protein (NR4A1) purchased from Abcam Inc, Cambridge, MA, was adsorbed to wells of a 96-well plate for 90 minutes at room temperature, then blocked with 200 uL 1% BSA in PBS buffer overnight. […] The plate was incubated for 60 min at room temperature, washed and counted in a standard fluorometer (excitation/emission 485/525 nm). Background (buffer alone) was subtracted.

[2] = target: T2, AA111-228 DNA-binding domain of RXR-alpha (human, UniProt P19793 111-228); assay: plate binding assay, 800 ng/well SA488-labelled peptide on 1 ug/well adsorbed RXRa-DBD
T2 construct: range 111-228; Bought recombinant protein (Abcam); also called RXRa-DBD; RXR-alpha DBD
T2 sequence (looked up): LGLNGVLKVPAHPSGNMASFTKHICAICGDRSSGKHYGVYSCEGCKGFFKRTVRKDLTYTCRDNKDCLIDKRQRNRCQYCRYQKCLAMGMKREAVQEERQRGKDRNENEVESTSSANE
Method: Experiment 4A. Binding of immodulin peptides to AA111-228 DNA-binding domain of RXR-alpha (RXRa-DBD). 1 ug/well recombinant RXRa-DBD (Abcam, Cambridge, MA) was adsorbed to wells of a 96-well plate for 60 minutes at room temperature, then blocked with 200 uL 1% bovine serum albumin (BSA) in PBS buffer overnight. Plate was washed and 800 ng/well Streptavidin-Alexa 488 conjugate (SA488)-labelled immX peptide was added. The plate was incubated for 60 min at room temperature, washed and counted in a standard fluorometer (excitation/emission 485/525 nm). Background (buffer alone) was subtracted.

[3] = target: T2, AA111-228 DNA-binding domain of …; assay: plate binding assay, 800 ng/well SA488-labelled peptide on 100 ng/well adsorbed domain
Method: (§1) Experiment 4B. Binding of immodulin peptides to RXR isoforms and domains. 100 ng/well recombinant human RXRa-DBD or RXRa-LBD, or 400 ng/well full length RXR-alpha, RXR-beta, RXR-gamma or PPAR-gamma (Abcam, Cambridge, MA) was adsorbed to wells of a 96-well plate for 60 minutes at room temperature, then blocked with 200 uL 1% BSA in PBS buffer overnight. The plate was washed with PBS and 800 ng/well Streptavidin-Alexa 488 conjugate (SA488)-labelled peptide was added. The plate was incubated for 2 hours at room temperature, washed and counted in a fluorometer (excitation/emission 485/525 nm).

[4] = target: T3, RXR-alpha ligand-binding domain (human, UniProt P19793 223-462, limits assumed); assay: as above
T3 construct: Bought recombinant protein (Abcam); also called RXRa-LBD; RXR-alpha LBD
T3 sequence (looked up): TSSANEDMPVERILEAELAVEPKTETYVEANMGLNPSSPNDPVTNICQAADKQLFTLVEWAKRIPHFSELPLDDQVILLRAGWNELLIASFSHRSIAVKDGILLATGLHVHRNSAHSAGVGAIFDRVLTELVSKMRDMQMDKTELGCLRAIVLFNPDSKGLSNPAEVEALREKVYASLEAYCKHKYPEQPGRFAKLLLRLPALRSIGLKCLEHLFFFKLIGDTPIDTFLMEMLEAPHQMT
Method: as §1

full length RXR-beta = target: T4, full length RXR-beta (human, UniProt P28702 1-533); assay: plate binding assay, 800 ng/well SA488-labelled peptide on 400 ng/well adsorbed receptor
T4 construct: mature; also called RXRβ; NR2B2
T4 sequence (looked up): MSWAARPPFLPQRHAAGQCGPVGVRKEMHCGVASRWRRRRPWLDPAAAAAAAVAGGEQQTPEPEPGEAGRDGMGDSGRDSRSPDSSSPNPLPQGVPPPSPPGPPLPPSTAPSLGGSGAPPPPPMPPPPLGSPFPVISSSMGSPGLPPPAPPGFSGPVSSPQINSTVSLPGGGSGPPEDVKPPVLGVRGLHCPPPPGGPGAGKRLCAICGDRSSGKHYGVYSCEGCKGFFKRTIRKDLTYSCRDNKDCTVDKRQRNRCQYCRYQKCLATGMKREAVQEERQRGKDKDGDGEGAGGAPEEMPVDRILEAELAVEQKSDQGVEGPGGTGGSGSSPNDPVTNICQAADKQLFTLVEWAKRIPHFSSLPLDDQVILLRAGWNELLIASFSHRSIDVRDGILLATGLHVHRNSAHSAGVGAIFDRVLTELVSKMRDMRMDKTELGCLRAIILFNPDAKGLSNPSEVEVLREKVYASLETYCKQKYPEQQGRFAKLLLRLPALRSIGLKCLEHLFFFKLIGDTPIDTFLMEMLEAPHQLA
Method: as §1

full length RXR-gamma = target: T5, full length RXR-gamma (human, UniProt P48443 1-463); assay: as above
T5 construct: mature; also called RXRγ; NR2B3
T5 sequence (looked up): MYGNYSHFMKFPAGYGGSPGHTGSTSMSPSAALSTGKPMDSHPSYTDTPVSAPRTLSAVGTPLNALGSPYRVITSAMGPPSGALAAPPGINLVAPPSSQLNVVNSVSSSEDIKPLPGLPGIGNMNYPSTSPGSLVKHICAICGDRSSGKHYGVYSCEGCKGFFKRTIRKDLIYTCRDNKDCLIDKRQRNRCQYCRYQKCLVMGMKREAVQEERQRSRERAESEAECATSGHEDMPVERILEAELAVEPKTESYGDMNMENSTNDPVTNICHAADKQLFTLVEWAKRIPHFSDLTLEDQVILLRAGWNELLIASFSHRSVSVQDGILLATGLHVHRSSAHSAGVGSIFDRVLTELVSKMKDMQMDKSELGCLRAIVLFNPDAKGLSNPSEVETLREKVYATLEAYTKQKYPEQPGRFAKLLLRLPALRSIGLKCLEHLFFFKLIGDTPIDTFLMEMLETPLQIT
Method: as §1

full length PPAR-gamma = target: T6, full length PPAR-gamma (human, UniProt P37231 1-505); assay: as above
T6 construct: mature
T6 sequence (looked up): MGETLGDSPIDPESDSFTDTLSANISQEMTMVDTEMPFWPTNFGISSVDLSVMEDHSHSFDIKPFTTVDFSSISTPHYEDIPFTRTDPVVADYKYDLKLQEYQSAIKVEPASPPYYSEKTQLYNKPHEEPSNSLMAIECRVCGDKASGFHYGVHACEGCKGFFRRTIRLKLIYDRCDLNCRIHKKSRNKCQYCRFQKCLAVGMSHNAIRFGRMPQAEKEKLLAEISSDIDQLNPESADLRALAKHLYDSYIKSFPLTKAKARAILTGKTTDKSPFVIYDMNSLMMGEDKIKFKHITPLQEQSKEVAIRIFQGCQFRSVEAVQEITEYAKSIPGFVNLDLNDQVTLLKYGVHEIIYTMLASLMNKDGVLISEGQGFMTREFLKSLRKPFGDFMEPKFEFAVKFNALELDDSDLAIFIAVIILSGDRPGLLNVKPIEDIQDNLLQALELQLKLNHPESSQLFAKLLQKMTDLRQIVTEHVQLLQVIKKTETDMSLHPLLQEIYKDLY
Method: as §1

full length RXR-alpha = target: T7, full length RXR-alpha (human, UniProt P19793 1-462); assay: as above
T7 construct: mature; also called RXRα; NR2B1
T7 sequence (looked up): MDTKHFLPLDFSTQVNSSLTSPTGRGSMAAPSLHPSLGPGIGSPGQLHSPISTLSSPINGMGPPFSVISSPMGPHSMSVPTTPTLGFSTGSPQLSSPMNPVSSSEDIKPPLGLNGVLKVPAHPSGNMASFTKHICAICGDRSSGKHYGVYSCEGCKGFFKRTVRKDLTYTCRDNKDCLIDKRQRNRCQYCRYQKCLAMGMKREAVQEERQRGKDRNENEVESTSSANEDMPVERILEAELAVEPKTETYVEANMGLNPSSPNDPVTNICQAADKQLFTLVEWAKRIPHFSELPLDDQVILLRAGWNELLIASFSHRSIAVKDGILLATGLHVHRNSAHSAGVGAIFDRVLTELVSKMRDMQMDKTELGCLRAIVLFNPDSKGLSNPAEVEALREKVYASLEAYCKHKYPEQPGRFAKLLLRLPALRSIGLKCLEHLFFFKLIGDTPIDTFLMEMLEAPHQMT
Method: as §1

T1 sequence (P22736 whole entry): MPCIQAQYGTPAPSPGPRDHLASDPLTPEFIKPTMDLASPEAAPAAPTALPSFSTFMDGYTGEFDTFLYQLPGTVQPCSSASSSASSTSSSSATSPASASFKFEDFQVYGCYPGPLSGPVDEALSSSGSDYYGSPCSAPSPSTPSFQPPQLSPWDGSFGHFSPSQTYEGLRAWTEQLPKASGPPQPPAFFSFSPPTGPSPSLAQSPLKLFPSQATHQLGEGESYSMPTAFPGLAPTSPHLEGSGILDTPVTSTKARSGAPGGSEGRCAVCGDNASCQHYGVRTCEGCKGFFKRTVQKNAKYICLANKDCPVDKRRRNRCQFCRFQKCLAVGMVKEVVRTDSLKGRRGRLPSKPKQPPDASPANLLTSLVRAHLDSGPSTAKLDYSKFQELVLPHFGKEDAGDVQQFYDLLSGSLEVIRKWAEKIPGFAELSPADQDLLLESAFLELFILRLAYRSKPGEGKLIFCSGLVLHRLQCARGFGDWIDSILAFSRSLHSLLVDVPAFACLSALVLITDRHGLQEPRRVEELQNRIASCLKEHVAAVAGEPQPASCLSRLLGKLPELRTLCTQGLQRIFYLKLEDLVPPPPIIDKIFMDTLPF

B1: imm4 (peptide)
peptide: Biotin-RNGNFHPKQCHPALDGQRGKCW
modifications: cysteine pairing not given here; also: labelled with Streptavidin-Alexa 488 conjugate (SA488)
notes: Synthetic immodulin peptide derived from IGFBP-4
Q: Which results are given for B1?
A: binding result [1]: no binding (tested: 333 ng/well peptide on 400 ng/well Nur77); Fluorescence (background subtracted) [2]: 27 fluorescence counts; fluorescence relative to imm3 binding (=100) [3]: 3.2 relative to imm3 binding (=100); fluorescence relative to imm3 binding (=100) [4]: 3 relative to imm3 binding (=100); fluorescence relative to imm3 binding (=100) (full length RXR-beta): 0.3 relative to imm3 binding (=100); fluorescence relative to imm3 binding (=100) (full length RXR-gamma): 3.6 relative to imm3 binding (=100); fluorescence relative to imm3 binding (=100) (full length PPAR-gamma): 0.1 relative to imm3 binding (=100); fluorescence relative to imm3 binding (=100) (full length RXR-alpha): 3.6 relative to imm3 binding (=100)

B2: imm5 (peptide)
peptide: Biotin-RKGFYKRKQCKPSRGRKRGICW
modifications: cysteine pairing not given here; also: labelled with Streptavidin-Alexa 488 conjugate (SA488)
notes: Synthetic immodulin peptide derived from IGFBP-5; also called immodulin peptide-5
Q: Which results are given for B2?
A: Fluorescence (background subtracted) [2]: 6800 fluorescence counts; fluorescence relative to imm3 binding (=100) [3]: 22.7 relative to imm3 binding (=100); fluorescence relative to imm3 binding (=100) [4]: 1.8 relative to imm3 binding (=100); fluorescence relative to imm3 binding (=100) (full length RXR-beta): 4 relative to imm3 binding (=100); fluorescence relative to imm3 binding (=100) (full length RXR-gamma): 90 relative to imm3 binding (=100); fluorescence relative to imm3 binding (=100) (full length PPAR-gamma): 1.6 relative to imm3 binding (=100); fluorescence relative to imm3 binding (=100) (full length RXR-alpha): 17.2 relative to imm3 binding (=100)

B3: imm6 (peptide)
peptide: Biotin-HRGFYRKRQCRSSQGQRRGPCW
modifications: cysteine pairing not given here; also: labelled with Streptavidin-Alexa 488 conjugate (SA488)
notes: Synthetic immodulin peptide derived from IGFBP-6; also called immodulin peptide-6
Q: How did the “Fluorescence (background subtracted)” value [2] turn out when B3 was run?
A: 587 fluorescence counts

Q: And the “fluorescence relative to imm3 binding (=100)” value [3]?
A: 22.9 relative to imm3 binding (=100)

Q: What about the “fluorescence relative to imm3 binding (=100)” value [4] of the same binder?
A: 1.6 relative to imm3 binding (=100)

Q: What about the “fluorescence relative to imm3 binding (=100)” value (full length RXR-beta) of the same binder?
A: 4.7 relative to imm3 binding (=100)

Q: And the “fluorescence relative to imm3 binding (=100)” value (full length RXR-gamma)?
A: 42 relative to imm3 binding (=100)

Q: And the fluorescence relative to imm3 binding (=100) (relative to imm3 binding (=100)) (full length PPAR-gamma)?
A: 6.8

Q: And the “fluorescence relative to imm3 binding (=100)” value (full length RXR-alpha)?
A: 12.9 relative to imm3 binding (=100)

B4: imm3 (peptide)
peptide: Biotin-KKGFYKKKQCRPSKGRKRGFCW
modifications: cysteine pairing not given here; also: labelled with Streptavidin-Alexa 488 conjugate (SA488)
notes: Synthetic immodulin peptide derived from IGFBP-3; also called immodulin peptide-3
Q: With B4 as the binder, how does the “Fluorescence (background subtracted)” value [2] read?
A: 6570 fluorescence counts

Q: What about the “fluorescence relative to imm3 binding (=100)” value [3] of the same binder?
A: 22.2 relative to imm3 binding (=100)

Q: What about the “fluorescence relative to imm3 binding (=100)” value [4] of the same binder?
A: 0.6 relative to imm3 binding (=100)

Q: What about the “fluorescence relative to imm3 binding (=100)” value (full length RXR-beta) of the same binder?
A: 2.9 relative to imm3 binding (=100)

Q: And the “fluorescence relative to imm3 binding (=100)” value (full length RXR-gamma)?
A: 100 relative to imm3 binding (=100)

Q: What about the “fluorescence relative to imm3 binding (=100)” value (full length PPAR-gamma) of the same binder?
A: 2.1 relative to imm3 binding (=100)

Q: And the “fluorescence relative to imm3 binding (=100)” value (full length RXR-alpha)?
A: 11.2 relative to imm3 binding (=100)
